From paper PMC5681435, “Differential Regulation of G1 CDK Complexes by the Hsp90-Cdc37 Chaperone System” (Cell Reports, 2017)

B1: GSTCDK4 (enzyme, human, UniProt P11802 1-303, looked up)
chain: MATSRYEPVAEIGVGAYGTVYKARDPHSGHFVALKSVRVPNGGGGGGGLPISTVREVALLRRLEAFEHPNVVRLMDVCATSRTDREIKVTLVFEHVDQDLRTYLDKAPPPGLPAETIKDLMRQFLRGLDFLHANCIVHRDLKPENILVTSGGTVKLADFGLARIYSYQMALTPVVVTLWYRAPEVLLQSTYATPVDMWSVGCIFAEMFRRKPLFCGNSEADQLGKIFDLIGLPPEDDWPRDVSLPRGAFPPRGPRPVQSVVPEMEESGAQLLLEMLTFNPHKRISAFRALQHSYLHKDEGNPE
notes: also called GST-tagged CDK4

Legend:
Conditions in all cases: both partners purified
[1] = target: T1, biotinylated C-terminally Avi-tagged Cdc37 (human, UniProt Q16543 1-378, biotin (on the Avi tag)); test: AlphaScreen or HTRF; direct binding: GST-fused CDK (10 nM) and biotinylated Avi-tagged partner titrated; terbium-conjugated anti-GST antibody and streptavidin-XL665
T1 construct: not shown: Avi tag, C-terminal, kept
T1 sequence (looked up): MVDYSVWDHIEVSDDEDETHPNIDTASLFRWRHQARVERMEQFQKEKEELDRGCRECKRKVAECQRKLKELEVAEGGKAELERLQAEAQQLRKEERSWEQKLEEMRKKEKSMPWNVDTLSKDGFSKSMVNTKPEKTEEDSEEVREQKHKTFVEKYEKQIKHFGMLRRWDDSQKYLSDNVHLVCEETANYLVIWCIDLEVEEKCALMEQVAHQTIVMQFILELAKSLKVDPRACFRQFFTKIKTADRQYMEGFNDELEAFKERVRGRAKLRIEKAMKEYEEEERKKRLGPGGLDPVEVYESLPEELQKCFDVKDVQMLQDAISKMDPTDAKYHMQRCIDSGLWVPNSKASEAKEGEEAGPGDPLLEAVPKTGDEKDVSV

GSTCDK6 [2] = target: T2, GSTCDK6 (human, UniProt Q00534 1-326); test: SPR
T2 construct: also called GST-tagged CDK6

GSTCDK4 [3] = target: B1; test: SPR
GSTCDK4 [4] = target: B1; test: SPR; remark: listed apart in the source
GSTCDK6 [5] = target: T2, GSTCDK6; test: SPR; remark: listed apart in the source
GSTCDK6 [6] = target: T2, GSTCDK6; test: AlphaScreen or HTRF; direct binding: GST-fused CDK (10 nM) and biotinylated Avi-tagged partner titrated; terbium-conjugated anti-GST antibody and streptavidin-XL665
GSTCDK4 [7] = target: B1; test: as above

T2 sequence (Q00534 whole entry): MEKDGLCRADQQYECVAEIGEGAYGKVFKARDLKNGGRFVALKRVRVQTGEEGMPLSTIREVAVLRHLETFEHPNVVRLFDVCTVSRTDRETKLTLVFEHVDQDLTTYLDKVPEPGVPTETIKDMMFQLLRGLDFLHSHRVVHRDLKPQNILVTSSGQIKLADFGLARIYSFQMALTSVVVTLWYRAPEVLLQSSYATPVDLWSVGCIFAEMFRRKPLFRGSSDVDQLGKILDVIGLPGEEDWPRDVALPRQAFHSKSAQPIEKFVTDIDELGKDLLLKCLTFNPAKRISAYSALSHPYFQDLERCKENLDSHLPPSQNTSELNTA

Binder: B1
- Kd [1]: 92 nM

B2: untagged p16INK4a (natural protein, UniProt P42771 1-156, looked up)
chain: MEPAAGSSMEPSADWLATAAARGRVEEVRALLEAGALPNAPNSYGRRPIQVMMMGSARVAELLLLHGAEPNCADPATLTRPVHDAAREGFLDTLVVLHRAGARLDVRDAWGRLPVDLAEELGHRDVARYLRAAAGGTRGSNHARIDAAEGPSDIPD
notes: also called wild-type p16INK4a; authentic p16INK4a
- Kd (GSTCDK6 [2]): 0.26 nM
- Kd (GSTCDK4 [3]): 0.87 nM

B3: p16D84N (natural protein, UniProt P42771 1-156, looked up)
chain: MEPAAGSSMEPSADWLATAAARGRVEEVRALLEAGALPNAPNSYGRRPIQVMMMGSARVAELLLLHGAEPNCADPATLTRPVHNAAREGFLDTLVVLHRAGARLDVRDAWGRLPVDLAEELGHRDVARYLRAAAGGTRGSNHARIDAAEGPSDIPD
notes: also called p16INK4a D84N
- Kd (GSTCDK6 [2]): 59.7 nM
- binding result (GSTCDK4 [4]): binds

B4: p16D108N (natural protein, UniProt P42771 1-156, looked up)
chain: MEPAAGSSMEPSADWLATAAARGRVEEVRALLEAGALPNAPNSYGRRPIQVMMMGSARVAELLLLHGAEPNCADPATLTRPVHDAAREGFLDTLVVLHRAGARLDVRNAWGRLPVDLAEELGHRDVARYLRAAAGGTRGSNHARIDAAEGPSDIPD
notes: also called p16INK4a D108N
- Kd (GSTCDK6 [2]): 0.28 nM
- Kd (GSTCDK4 [3]): 2.56 nM

B5: p16M53E (natural protein, UniProt P42771 1-156, looked up)
chain: MEPAAGSSMEPSADWLATAAARGRVEEVRALLEAGALPNAPNSYGRRPIQVMEMGSARVAELLLLHGAEPNCADPATLTRPVHDAAREGFLDTLVVLHRAGARLDVRDAWGRLPVDLAEELGHRDVARYLRAAAGGTRGSNHARIDAAEGPSDIPD
notes: also called p16INK4a M53E
- Kd (GSTCDK6 [2]): 1.56 nM
- binding result (GSTCDK4 [4]): binds

B6: p16M53I (natural protein, UniProt P42771 1-156, looked up)
chain: MEPAAGSSMEPSADWLATAAARGRVEEVRALLEAGALPNAPNSYGRRPIQVMIMGSARVAELLLLHGAEPNCADPATLTRPVHDAAREGFLDTLVVLHRAGARLDVRDAWGRLPVDLAEELGHRDVARYLRAAAGGTRGSNHARIDAAEGPSDIPD
notes: also called p16INK4a M53I
- Kd (GSTCDK6 [2]): 0.73 nM
- fold higher rate of dissociation against wild-type p16INK4a (GSTCDK6 [5]): ~10 fold
- fold reduction in the strength of the interaction against wild-type p16INK4a (GSTCDK4 [4]): > 1e+06 fold

B7: Vcyclin (Avi-tagged, for direct HTRF) (natural protein)
chain: MADSPNRLNRAKIDSTTMKDPRVLNNLKLRELLLPKFTSLWEIQTEVTVDNRTILLTWMHLLCESFELDKSVFPLSVSILDRYLCKKQGTKKTLQKIGAACVLIGSKIRTVKPMTVSKLTYLSCDCFTNLELINQEKDILEALKWDTEAVLATDFLIPLCNALKIPEDLWPQLYEAASTTICKALIQPNIALLSPGLICAGGLLTTIETDNTNCRPWTCYLEDLSSILNFSTNTVRTVKDQVSEAFSLYDLEIL
modifications: biotin (on the Avi tag)
notes: also called viral D-type cyclin from Herpesvirus saimiri; source: purified
- Kd (GSTCDK6 [6]): 14.9 nM
- Kd (GSTCDK4 [7]): 151 nM

B8: Avi-tagged Kcyclin (natural protein)
chain: MATANNPPSGLLDPTLCEDRIFYNILEIEPRFLTSDSVFGTFQQSLTSHMRKLLGTWMFSVCQEYNLEPNVVALALNLLDRLLLIKQVSKEHFQKTGSACLLVASKLRSLTPISTSSLCYAAADSFSRQELIDQEKELLEKLAWRTEAVLATDVTSFLLLKLLGGSQHLDFWHHEVNTLITKALVDPKTGSLPASIISAAGCALLVPANVIPQDTHSGGVVPQLASILGCDVSVLQAAVEQILTSVSDFDLRILDSY
modifications: biotin (on the Avi tag)
notes: also called viral D-type cyclin from Kaposi's sarcoma-associated herpesvirus; source: purified
- Kd (GSTCDK6 [6]): 10 nM
- Kd (GSTCDK4 [7]): 24.9 nM
